Patent US20100166741A1 (Genentech, published 2010)

B1: 9.1(5) (antibody, human IgG1, kappa)
heavy: EVQLVESGGGLVQPGGSLRLSCAASGFTVTAYYMSWVRQAPGKGLEWVGFIRDKANGYTTEYNPSVKGRFTISRDTSKNTFYLQMNSLRAEDTAVYYCAQVRRALDYWGQGTLVTVSSASTKGPSVFPLAPSSKSTSGGTAALGCLVKDYFPEPVTVSWNSGALTSGVHTFPAVLQSSGLYSLSSVVTVPSSSLGTQTYICNVNHKPSNTKVDKKVEPKSCDKTHTCPPCPAPELLGGPSVFLFPPKPKDTLMISRTPEVTCVVVDVSHEDPEVKFNWYVDGVEVHNAKTKPREEQYNATYRVVSVLTVLHQDWLNGKEYKCKVSNAALPAPIAATISKAKGQPREPQVYTLPPSREEMTKNQVSLTCLVKGFYPSDIAVEWESNGQPENNYKTTPPVLDSDGSFFLYSKLTVDKSRWQQGNVFSCSVMHEALHNHYTQKSLSLSPG
light: DIQMTQSPSSLSASVGDRVTITCKSSQSLLYSSNQNNYLAWYQQKPGKAPKLLIYWASTRESGVPSRFSGSGSGTDFTLTISSLQPEDFATYYCQQYYTYPYTFGQGTKVEIKRTVAAPSVFIFPPSDEQLKSGTASVVCLLNNFYPREAKVQWKVDNALQSGNSQESVTEQDSKDSTYSLSSTLTLSKADYEKHKVYACEVTHQGLSSPVTKSFNRGEC
notes: Fc variant of 9.1RF, expressed in CHO; also called 9.1RF S298A/K326A/E333A/K334A
B2: 9.1(7) (antibody, human IgG1, kappa)
heavy: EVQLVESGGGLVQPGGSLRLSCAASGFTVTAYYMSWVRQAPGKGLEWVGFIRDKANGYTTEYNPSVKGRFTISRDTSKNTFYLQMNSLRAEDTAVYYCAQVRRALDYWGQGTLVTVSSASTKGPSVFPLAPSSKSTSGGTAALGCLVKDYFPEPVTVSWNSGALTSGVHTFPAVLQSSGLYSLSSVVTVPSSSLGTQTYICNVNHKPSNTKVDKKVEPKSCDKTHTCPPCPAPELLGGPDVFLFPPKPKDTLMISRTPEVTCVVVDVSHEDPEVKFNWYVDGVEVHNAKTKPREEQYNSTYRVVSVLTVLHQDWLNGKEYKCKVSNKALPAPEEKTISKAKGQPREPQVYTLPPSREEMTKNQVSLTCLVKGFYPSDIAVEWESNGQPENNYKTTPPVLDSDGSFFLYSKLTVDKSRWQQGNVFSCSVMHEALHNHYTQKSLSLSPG
light: DIQMTQSPSSLSASVGDRVTITCKSSQSLLYSSNQNNYLAWYQQKPGKAPKLLIYWASTRESGVPSRFSGSGSGTDFTLTISSLQPEDFATYYCQQYYTYPYTFGQGTKVEIKRTVAAPSVFIFPPSDEQLKSGTASVVCLLNNFYPREAKVQWKVDNALQSGNSQESVTEQDSKDSTYSLSSTLTLSKADYEKHKVYACEVTHQGLSSPVTKSFNRGEC
notes: Fc variant of 9.1RF, expressed in CHO; also called 9.1RF 239D/332E
B3: 9.1(8) (antibody, human IgG1, kappa)
heavy: EVQLVESGGGLVQPGGSLRLSCAASGFTVTAYYMSWVRQAPGKGLEWVGFIRDKANGYTTEYNPSVKGRFTISRDTSKNTFYLQMNSLRAEDTAVYYCAQVRRALDYWGQGTLVTVSSASTKGPSVFPLAPSSKSTSGGTAALGCLVKDYFPEPVTVSWNSGALTSGVHTFPAVLQSSGLYSLSSVVTVPSSSLGTQTYICNVNHKPSNTKVDKKVEPKSCDKTHTCPPCPAPELLGGPDVFLFPPKPKDTLMISRTPEVTCVVVDVSHEDPEVKFNWYVDGVEVHNAKTKPREEQYNATYRVVSVLTVLHQDWLNGKEYKCKVSNKALPAPEEKTISKAKGQPREPQVYTLPPSREEMTKNQVSLTCLVKGFYPSDIAVEWESNGQPENNYKTTPPVLDSDGSFFLYSKLTVDKSRWQQGNVFSCSVMHEALHNHYTQKSLSLSPG
light: DIQMTQSPSSLSASVGDRVTITCKSSQSLLYSSNQNNYLAWYQQKPGKAPKLLIYWASTRESGVPSRFSGSGSGTDFTLTISSLQPEDFATYYCQQYYTYPYTFGQGTKVEIKRTVAAPSVFIFPPSDEQLKSGTASVVCLLNNFYPREAKVQWKVDNALQSGNSQESVTEQDSKDSTYSLSSTLTLSKADYEKHKVYACEVTHQGLSSPVTKSFNRGEC
notes: Fc variant of 9.1RF, expressed in CHO; also called 9.1RF 239D/298A/332E

Tests used:
[1] = molecular target: T1, human FcγRIIa extracellular domain, His-tagged GST fusion (human, UniProt P12318 34-217); assay: ELISA, captured FcγR-GST;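 further: antibody variants applied as dilution series to receptor wells, with retained antibody read out via an HRP-linked goat F(ab′)2 fragment recognizing human Fab′2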
T1 construct: extracellular domain; also called hFcgRIIa; CD32A; not shown: C-terminal Gly/His6/GST tag
T1 sequence (looked up): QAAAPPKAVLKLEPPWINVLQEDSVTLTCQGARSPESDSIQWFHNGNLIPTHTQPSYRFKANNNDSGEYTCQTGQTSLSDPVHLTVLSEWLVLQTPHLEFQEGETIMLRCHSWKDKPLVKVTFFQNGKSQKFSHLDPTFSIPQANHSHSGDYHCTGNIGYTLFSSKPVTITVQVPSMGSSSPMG

[2] = molecular target: T2, mouse FcγRIII extracellular domain, His-tagged GST fusion (mouse, UniProt P08508 31-215); assay: ELISA, captured FcγR-GST;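 further: antibody variants applied as dilution series to receptor wells, with retained antibody read out via an HRP-linked goat F(ab′)2 fragment recognizing human Fab′2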
T2 construct: extracellular domain; also called Mouse III; not shown: His tag and GST
T2 sequence (looked up): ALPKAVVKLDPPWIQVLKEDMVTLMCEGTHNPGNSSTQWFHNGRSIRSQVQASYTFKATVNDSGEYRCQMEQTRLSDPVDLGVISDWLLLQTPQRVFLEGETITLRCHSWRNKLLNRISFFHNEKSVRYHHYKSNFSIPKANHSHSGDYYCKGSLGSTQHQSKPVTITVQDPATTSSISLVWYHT

[3] = molecular target: T3, mouse FcγRII extracellular domain, His-tagged GST fusion (mouse, UniProt P08101 30-210); assay: ELISA, captured FcγR-GST;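 further: antibody variants applied as dilution series to receptor wells, with retained antibody read out via an HRP-linked goat F(ab′)2 fragment recognizing human Fab′2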
T3 construct: extracellular domain; also called Mouse II; not shown: His tag and GST
T3 sequence (looked up): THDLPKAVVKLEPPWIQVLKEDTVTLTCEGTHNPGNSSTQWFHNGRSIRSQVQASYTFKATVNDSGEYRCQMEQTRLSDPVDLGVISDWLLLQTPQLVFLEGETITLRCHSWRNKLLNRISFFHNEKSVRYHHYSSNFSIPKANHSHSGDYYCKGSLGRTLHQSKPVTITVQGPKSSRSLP

[4] = molecular target: T4, human FcγRI extracellular domain, His-tagged GST fusion (human, UniProt P12314 16-292); assay: ELISA, captured FcγR-GST;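 further: antibody variants applied as dilution series to receptor wells, with retained antibody read out via an HRP-linked goat F(ab′)2 fragment recognizing human Fab′2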
T4 construct: extracellular domain; also called hFcgRI; FcγRIA; not shown: C-terminal Gly/His6/GST tag

[5] = molecular target: T5, human FcγRIIb extracellular domain, His-tagged GST fusion (human, UniProt P31994 43-217); assay: ELISA, captured FcγR-GST
T5 construct: extracellular domain; also called hFcgRIIb; CD32B; not shown: C-terminal Gly/His6/GST tag
T5 sequence (looked up): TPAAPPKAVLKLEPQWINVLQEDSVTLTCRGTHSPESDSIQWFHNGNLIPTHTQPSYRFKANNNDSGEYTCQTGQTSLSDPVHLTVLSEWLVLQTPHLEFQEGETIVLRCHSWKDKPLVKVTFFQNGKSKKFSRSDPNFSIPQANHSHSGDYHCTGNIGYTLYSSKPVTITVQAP

[6] = molecular target: T6, mouse FcγRI extracellular domain, His-tagged GST fusion (mouse, UniProt P26151 25-297); assay: ELISA, captured FcγR-GST
T6 construct: extracellular domain; also called Mouse I; mFcγRI; not shown: His tag and GST
T6 sequence (looked up): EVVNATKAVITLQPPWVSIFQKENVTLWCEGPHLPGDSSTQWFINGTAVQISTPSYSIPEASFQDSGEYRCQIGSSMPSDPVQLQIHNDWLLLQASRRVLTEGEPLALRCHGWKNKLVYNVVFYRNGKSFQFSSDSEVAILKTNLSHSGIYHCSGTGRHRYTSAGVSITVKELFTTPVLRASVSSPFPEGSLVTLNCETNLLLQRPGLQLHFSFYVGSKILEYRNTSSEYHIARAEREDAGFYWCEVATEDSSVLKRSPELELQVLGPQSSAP

[7] = molecular target: human FcγRIII (CD16) on NK cells (human, UniProt P08637 17-254); assay: cell-based or functional assay

Row | Binder | fold improvement in binding vs Herceptin (EC50herceptin/EC50sample) [1] [fold] | fold improvement in binding vs Herceptin (EC50herceptin/EC50sample) [2] [fold] | fold improvement in binding vs Herceptin (EC50herceptin/EC50sample) [3] [fold] | fold improvement in binding vs Herceptin (EC50herceptin/EC50sample) [4] [fold] | fold improvement in binding vs Herceptin (EC50herceptin/EC50sample) [5] [fold] | fold improvement in binding vs Herceptin (EC50herceptin/EC50sample) [6] [fold] | ADCC on BJAB cells with NK cells, relative fold increase compared to 9.1RF [7] [fold]
1 | B1 | 0.2 | 1.2 | 1.3 | 0.6 | 0.7 | 1.9 | 3
2 | B2 | 5.3 | 9.9 | 19 | 0.7 | 17 | 62 | 7
3 | B3 | 0.9 | 4 | 7.6 | 0.7 | 3.5 | 24 | 12
